The nanobody polyreactivity screen of Harvey et al. (2022)

Assay: yeast display, Sf9 membrane polyspecificity reagent, FACS + sequencing; frameworks hold sequencing errors
How it was run: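 Using colony PCR, genes from sorted yeast display clones were amplified, then sequenced on MiSeq at 2 × 250 and filtered by CDR length. The clones had been stained with 10% biotinylated, detergent-solubilized Sf9 membrane reagent for 1 hour at 4 °C and sorted by FACS into low and high (top ~1%) gates on anti-HA and streptavidin fluorescence. Polyreactivity labels come from the gate of origin.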

| Sequence | polyreactivity (PSR sort gate) |
| --- | --- |
| QVQLVESGGGLVQAGGSLRLSCAASGFIFYKNAMGWYRQAPGKERELVADISKRGASTYYADSVKGRFTISRDNAKNTVYLQMNSLKPEDTAVYYCAAGYYRASTTVTHGGIEGDSWGQGTQVTVSS | high polyreactivity |
| QVQLVESGGGLVQAGGSLRLSCDASGLTFPSYAMGWYRQAPGKERELVAAISSGDSTNYADSVKGRFTISRDNAKNTVYLQMNSLKPEDTAVYYCAVGLPHGGRRLYGSWYRFDYWGQGTQVTVSS | low polyreactivity |
| QVQLQESGGGLVQAGGDLRLSCEASGNIFRDYIMGWYRQAPGKEREFVAGIDRGANTNYADSVKGRFTISRDNAKNTVYLQMNSLQPEDTAVYYCAVHTAIVPDFIYWGQGTQVTVRS | low polyreactivity |
| QVHLVESRGGLVQAGGSLRLSCAASVFTFRYYAMGWYRQAPGKERELVAAITSDGITNYADSVKGRFTISRDNAKNTVYLQMNSLKPEDTAVYYCAAVGWFYGIRLEYWGQGTQLTVSS | high polyreactivity |
| QVQLVESGGGLVQAGGSLRLSCAASGRILYGYTMGWYRQAPGKERELVAAISSNGDSTYYADSVKGRFTISRDNAKNTVYLQLNSLKPEDTAVYYCAAVSIGPGEYDYWGQGTQVTVSS | low polyreactivity |
| QVQLVESGGGLVQAGGSLRLSCAASGRIFRRYVMGWYRPAPGKERELVATINSNGGSTYYADSVKGRFTISRDNAKNTVYLQMNSLKPEDTAVYYCAAYYRWIGGRYTPYYYWGQATQVTVSS | high polyreactivity |
| QVQLVESGGGLVQAGGSLRLSCAASGRTFRVYAMGWYRQAPGKEREFVAAISYSGGRTNYADSVKGRFTISRDNSKNTVYLQMNSLKPEDTAVYYCAARYSWAEGDYWGQGTQVTVSS | low polyreactivity |
| QVQLVESGGGLVQAGGSLRLSCAASGRIFTIYAMGWYRQAPGKERELVAAISDRGTRTYYADSVKGRFTISRDNAKNTVYLQMNSLKPEDSEVYYCATDALYTYGYDYWGQGTQVTVSS | low polyreactivity |
| QVQLVESGGGLVQAGGSLRLSCAASGLTFYYYAMGWYRQAPGKERELVAAMSIGGSTDYADSVKGRFTISRDNAKNTVYLQMNSLKPEDTAVYYCNVDDNSEYDYWGQGTQVTVSS | low polyreactivity |
| QVQLVESGGGLVQAGGSLRLICAASGITFTGYAMGWYREAPGKEREVVAPISKRGARTYYADSVKGRFTISRDNAKHTVYVQMNSLQPEDTAVYYCAVRRWGYWTGYRGLDYDYWGQGTQVTVSS | high polyreactivity |
| QVQLVESGGGLVQEGGSLRLSCAASGRTFWAYAMGWYRQAPGKERELVAAITTSGGSTNYADSVKGRFTISRDNAKNTVYLQMNSLKPEDTADYYCNADPTYHVVNGVAYWGQGTQVTVSS | low polyreactivity |
| QVQLVESGGGLVQAGGSLSLSCAASGRTFGAYAMGWYRQAPGKERELVATITVSGGSTYYADSVKGRFTISRDNAKNTVYLQMNSLKREDTAVYYCAAEWYPYPWGYGYWGQGTQVTVSS | low polyreactivity |
| QGQLVESGGGLVQAGGSLRLSCAPSGGTFEFYTMGWYRQAPGKERELVAVINASGDSTYYADSVKGRFTISRDNAKNTVYLQMNSLKPEDTAVYYCAADHRGEYDYWGQGTQVTVSS | low polyreactivity |
| QVQLVESGGGLVQAGGSLRLSCAASGRTFTYNAMGWYRQAPGKERELVAAITYRGGSTYYADSVKGRFTISRDNSNNTVYLQMNSLKPEDTAVYYCAASVSYYRYNTPHYYYWGQGTQVTVSS | high polyreactivity |
| QVQLVESGGGLVQAGGSLRLSCAASGRNFYYYAMGWSRQAPGKERELVAAISWSGGSTRYADSVKGRFTISRDNPKNTVYLQMNSLKPEDTAVYYCAAEPDYWVGWIRYDYWGQGTQVTVSS | low polyreactivity |
| QVQLVESGGGLVQAGGSLRLSCAASGIIFYYNAMGWYRQAPGKERELVAAISWSGGSTYYADSVKGRFTISRDNAKNTVYLQMNSLKPEDTAVYYCNAVRSTSYGSYNYWGQGTQVTVSS | low polyreactivity |

| Sequence | polyreactivity (PSR sort gate) |
| --- | --- |
| QVQLVESGGGLVQAGGSLRLSCAASGSTFTTNAMGLYRQEPGKERELVAAITSTGSTYADSVKGRFTISRDNAMNTVYLQMNSLKPEDTAVYYCAADTQWTTPYDYWGQGTQVTVSS | low polyreactivity |
| QVQVVESGGGLVQAGGSLRLSCAASGRTFDVYAMGWYRQAPGKERELVAAITERGSTYYADSVKRRFTISRDNAKNTDYLQMNSLKPVDTAVYDCAARTSGDGCIYYYWGQGTQVTVSS | high polyreactivity |
| QVQLVDSGGGLVQAGGSLRLSCAASGFTIKYYAMVWYRQAPGKERELVATITSGARTNYADSVKGRFTISRDNAKNTVYLQMNSLKPEDTAVYYCATPYSAYWQNERDYWGQGTQVTVSS | high polyreactivity |
| QVQLVESGGGLVQAGGSLRLSCAASGIIFRNYAMGWYRPAPGKEREFVASITKRGGSTYYADSVKGRFTISRDNAKNTVYLQINSLKPEDTAVYYCNTQWYRGRTEYGYWGQGTQVTVSS | high polyreactivity |
| QVQLVESGGGLVQAGGSLRLSCAASGRILGDYAMGWYRQAPGKEREFVAASDYNGGSTNYADSVKGRFTISRDNAKNTVYLQMNSLKPEETAVYYCAAPGFPSRNGFGYWGQGTQVTVSS | low polyreactivity |
| QDHLVESGGGLVQAGGSLRLSCAASGSIFGLNVMGWYRHAPGKERELVASITSGRSTNYADSVKVRFTISRDNAKNTVYLQMNSLKPVVTAVYYCYATRVRGWYVTRYYYWGQGTQVTVSA | high polyreactivity |
| QVQLLESAGGLVQAGGSLRLRCSASGYISCDASMGWYRHAPGKERELAASITKGSSTNYADSEKGRFTIRDNAINTVYLQMNSLKPEDTAVCYCAVTYPYWGDYTYWGHGTQVTVSS | low polyreactivity |
| QVQLVESGGGLVQAGGSLRLSCAASGSTFRVYAMGWYRPAPGKVRELVAAISGSGTSTYYADSVKGRFTISRDNAKNTVYLQMNSLKPEDTAVYYCATGKNYWRGYEYWGQGTQVTVSS | high polyreactivity |
| QVQLVESGGGLVQAGGSLRISCAASGRIFVGYAMGWYRQAPGKERELVAAINRSGSSTYYADSVKGRFTISRDNAKNTVYLQMNSLKPEDTAVYYCNARSGNRYGPRYDYWGQGTQVTVSS | high polyreactivity |
| QVQLVESGGGLVQAGGSLRLSCAASGFTLRRYAMGWYRLAPGKERELVATITSGGTTDYADSVKGRFTISRDNAKNTVYLQMNSLKPEDTAVYYCAAYRRGAYYYWGQGTQVTVSS | high polyreactivity |
| QVQLVESAGGLVQAGGSLSLSCAASGRTFGQYPMGWYRKAPGKERELVAAITRSAGSTYYADSVKGRFTISRDNAKNNVYLQMNSLKPEDTAVSYCAKRFYWSVDGYRTAKYYYWGQGTQVTVSS | high polyreactivity |
| QVQLVESGGGLVQAGGSLRLSCAASGRIFYYNGMGWYRQAPGKERELVASIPRTSGRTFYADSVKGRFTISRDKAKNTVYLQMNSLKPEDTAVYYCAAVGSRYVLGEYGYWGQGTQVTVSS | high polyreactivity |
| QVQLVESGGGLVQAGGSLRLSCAASGSIFDINVMGWYRQAPGKERELVAAITSGGRTNYADSVKGRFTISRDNAKNTVYLQMNSLKPEDTAVYYCAAVRHRQTYPKYNYWGQGTQVTVSS | high polyreactivity |
| QVQLVESGGGLVQAGGSLRLSCAASGRTFSVNAMGWYRQAPGNERELVAARRTGDSTNYADSVKGRFTFSRDNAKYTVYLPMNSLKPEDTSVDYCAADVWGSSAQRGWRKYYYWGQGTQVTVSS | high polyreactivity |
| QVQLVESGGGLVQAGGSLRLSCAASGRTFLYNVMGWYRQAPGKERELVAAITSGGRTYYADSVKGRFTISRDNAKNTVYLQMNSLKPEVTAVYYCAADPYFYYYGYDYWGQGTQVTVSS | low polyreactivity |
| QVQLVESGGGLVQAGGSLRLSCAASGSIFPYYAMGWYRQAPGKERELVAAITWSGGGTYYADSVKGRFTISRDNAKNTGYLQMNSLKPEDTAVYYCAASYRYYWFDYWGQGTQVTVSS | high polyreactivity |
